Data published in patent US20180051082A1 (ANAPTYSBIO, published 2018).

Experiments:
[1] = target: T1, monomeric soluble human PD1-Avi-His (human, UniProt Q15116 25-170); test: KINEXA 3000 solution-based affinity, PD1-Avi-His titrated against constant antibody
T1 construct: extracellular domain; not shown: Avi tag and His tag at the C-terminus
Procedure: Solution-based affinity analyses were carried out using a KINEXA™ 3000 assay (Sapidyne Instruments, Boise, Idaho), and results were analyzed using KINEXA™ Pro Software 3.2.6. Experimental parameters were selected to reach a maximum signal with antibody alone between 0.8 and 1.2 V, while limiting nonspecific binding signal with buffer alone to less than 10% of the maximum signal. Azlactone beads (50 mg) were coated with antigen by diluting in a solution of PD-1-Avi-His (50 μg/mL in 1 mL) in 50 mM Na₂CO₃. The solution was rotated at room temperature for 2 hours, and beads were pelleted in a picofuge and washed twice with blocking solution (10 mg/mL BSA, 1 M Tris-HCl, pH 8.0). Beads were resuspended in blocking solution (1 mL), rotated at room temperature for 1 hour, and diluted in 25 volumes PBS/0.02% NaN3. […] All samples were diluted in PBS, 0.2% NaN₃, 1 mg/mL BSA and allowed to equilibrate at room temperature for 30 hours. Additionally, samples containing only antibody and only buffer were tested in order to determine maximum signal and nonspecific binding signal, respectively.

[2] = target: T1, monomeric soluble human PD1-Avi-His; test: SPR (BIACORE T200), antibody captured on anti-human IgG, monomeric PD1-Avi-His flowed, 1:1 fit
Procedure: SPR analyses were carried out using a BIACORE™ T200 instrument, and kinetic constants were determined using the BIACORE™ T200 evaluation software. Experimental parameters were chosen to ensure that saturation would be reached at the highest antigen concentrations and that Rmax values would be kept under 30 RU. GE anti-Human IgG (Fc-specific, approximately 7,000 RU) was immobilized on a BIACORETM CM5 chip using EDC-activated amine coupling chemistry. Antibodies (0.5 μg/mL, 60 second capture time) were then captured using this surface. Next, monomeric soluble human PD1-Avi-His was flowed over captured antibody (300 second association, 300 second dissociation) using a three-fold serial dilution series from 500 nM to 2 nM. Captured antibody and antigen were removed between each cycle using 3 M MgCl₂ (60 second contact time) in order to ensure a fresh binding surface for each concentration of antigen. The resulting sensorgrams were fit globally using a 1:1 binding model in order to calculate on- and off-rates (kₐ and kd, respectively), as well as affinities (KD).

[3] = target: T2, full-length human PD-1 on the cell surface (human, UniProt Q15116 25-288); test: hybridoma screening, flow cytometry on PD-1 CHO-K1 cells (Example 1)
T2 construct: whole, on cells; also called PD-1 CHO cells; CHO-K1 cells stably expressing full length human PD-1
T2 sequence (Q15116 25-288): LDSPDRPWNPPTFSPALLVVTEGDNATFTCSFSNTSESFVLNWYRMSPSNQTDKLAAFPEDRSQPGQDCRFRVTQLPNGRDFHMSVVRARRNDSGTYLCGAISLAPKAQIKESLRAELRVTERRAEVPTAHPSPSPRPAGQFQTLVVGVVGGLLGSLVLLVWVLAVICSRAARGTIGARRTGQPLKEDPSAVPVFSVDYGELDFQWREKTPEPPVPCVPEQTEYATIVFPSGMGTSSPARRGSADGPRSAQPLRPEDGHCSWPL
Procedure: Hybridoma supernatants from ten 96-well plates were screened for binding to a CHO-K1 cell clone stably transfected with a nucleic acid sequence encoding full length human PD-1 and compared to binding to untransfected CHO-K1 cells. Specifically, hybridoma supernatants were diluted 1:1 with PBS/2% FBS and incubated with an equal volume of PD-1 CHO-K1 cells (2.5×10⁵ cells in PBS, 2% FBS) for 30 minutes at 4° C. Cells were centrifuged, washed once with PBS/1% FBS, and incubated with APC-conjugated goat anti-mouse IgG (H+L) (Southern Biotechnology, Birmingham, Ala.) for 30 minutes at 4° C. […] Mouse IgG levels were quantified by ELISA.

[4] = target: T2, full-length human PD-1 on the cell …; test: binding to PD-1 antigens as in Example 1 (format not restated)
[5] = target: T2, full-length human PD-1 on the cell …; test: cell-based or functional assay

T1 sequence (Q15116 25-170): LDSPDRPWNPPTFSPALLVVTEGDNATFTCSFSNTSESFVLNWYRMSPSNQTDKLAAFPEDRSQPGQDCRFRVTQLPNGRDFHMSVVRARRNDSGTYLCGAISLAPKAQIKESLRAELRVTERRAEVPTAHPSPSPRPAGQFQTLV

Row | Kd [2] | koff [2] | kon [2] | Binder | also measured
1 | 9 nM | 0.0017 s⁻¹ | 190000 M⁻¹ s⁻¹ | APE1923 (antibody, human IgG1, V domains shown, expressed from HEK 293 cells as human IgG1) VH: EVQLLESGGGLVQPGGSLRLSCAASGFTFSSYTMSWVRQAPGKGLEWVSVISSGGNSAYYPDSVQGRFTISRDNSKNTLYLQMNSLRAEDTAVYYCAKEHYGTSHFAYWGQGTLVTVSS VL: EIVLTQSPATLSLSPGERATLSCRASESVDNFGISFMSWYQQKPGQAPRLLIYAASNPGSGIPARFSGSGSGTDFTLTISSLEPEDFAVYYCQQSKEVPYTFGQGTKLEIK | Kd [1]: 1 nM
2 | 15 nM | 0.0018 s⁻¹ | 130000 M⁻¹ s⁻¹ | APE1922 (antibody, human IgG1, V domains shown, expressed from HEK 293 cells as human IgG1) VH: EVQLLESGGGLVQPGGSLRLSCAASGFTFSSYTMSWVRQAPGKGLEWVSVISSGGDSAYYPDSVQGRFTISRDNSKNTLYLQMNSLRAEDTAVYYCAKEHYGTSHFAYWGQGTLVTVSS VL: EIVLTQSPATLSLSPGERATLSCRASESVDNFGISFMSWYQQKPGQAPRLLIYAASNPGSGIPARFSGSGSGTDFTLTISSLEPEDFAVYYCQQSKEVPYTFGQGTKLEIK | 
3 | 10 nM | 0.0018 s⁻¹ | 180000 M⁻¹ s⁻¹ | APE1924 (antibody, human IgG1, V domains shown, expressed from HEK 293 cells as human IgG1) VH: EVQLLESGGGLVQPGGSLRLSCAASGFTFSSYTMSWVRQAPGKGLEWVSVISSGGNYAYYPDSVQGRFTISRDNSKNTLYLQMNSLRAEDTAVYYCAKEHYGTSHFAYWGQGTLVTVSS VL: EIVLTQSPATLSLSPGERATLSCRASESVDNFGISFMSWYQQKPGQAPRLLIYAASNPGSGIPARFSGSGSGTDFTLTISSLEPEDFAVYYCQQSKEVPYTFGQGTKLEIK | Kd [1]: ~1 nM
4 | 17 nM | 0.001 s⁻¹ | 58000 M⁻¹ s⁻¹ | APE1963 (antibody, human IgG1, V domains shown, expressed from HEK 293 cells as human IgG1) VH: EVQLLESGGGLVQPGGSLRLSCAASGFTFSSYTMSWVRQAPGKGLEWVSVISSGGNSAYYPDSVQGRFTISRDNSKNTLYLQMNSLRAEDTAVYYCAKEYYGSSHFAYWGQGTLVTVSS VL: EIVLTQSPATLSLSPGERATLSCRASESVDNFGISFMSWYQQKPGQAPRLLIYAASNPGSGIPARFSGSGSGTDFTLTISSLEPEDFAVYYCQQSKEVPYTFGQGTKLEIK | 
5 | 17 nM | 0.0025 s⁻¹ | 150000 M⁻¹ s⁻¹ | APE1950 (antibody, human IgG1, V domains shown, expressed from HEK 293 cells as human IgG1) VH: EVQLLESGGGLVQPGGSLRLSCAASGFTFSSYTMSWVRQAPGKGLEWVSVISSGGDSTYYPDSVQGRFTISRDNSKNTLYLQMNSLRAEDTAVYYCAKEHYGTSHFAYWGQGTLVTVSS VL: EIVLTQSPATLSLSPGERATLSCRASESVDNFGISFMSWYQQKPGQAPRLLIYAASNPGSGIPARFSGSGSGTDFTLTISSLEPEDFAVYYCQQSKEVPYTFGQGTKLEIK | 
6 |  |  |  | 9A2 (mouse monoclonal antibody) (antibody, V domains shown, Mouse hybridoma antibody) VH: DVKLVESGGGLVKPGGSLKLSCAASGFTFSSYTLSWVRQTPGKRLEWVAVISSGGDYAYYPDSVQGRFTISRDNAKNTLYLQMNSLKSEDTAMYYCSRDHYGTSHFAYWGQGTLVTVSA VL: not shown | binding result [3]: binds
7 |  |  |  | 9A2 mouse:human chimeric antibody (antibody, human IgG1, V domains shown, also called chimeric 9A2) VH: DVKLVESGGGLVKPGGSLKLSCAASGFTFSSYTLSWVRQTPGKRLEWVAVISSGGDYAYYPDSVQGRFTISRDNAKNTLYLQMNSLKSEDTAMYYCSRDHYGTSHFAYWGQGTLVTVSA VL: not shown | binding result [4]: binds
8 |  |  |  | 10B11 (mouse monoclonal antibody) (antibody, V domains shown, Mouse hybridoma antibody) VH: DVKLVESGGGLVKPGGSLKVSCAASGFTFSSYTMSWVRQTPEKRLEWVAVISSGGNSTYYPDSVKGRFTISRDNAKNTLYLQMSSLKSEDTAMYYCTREHYGSSHFAYWGQGTLVTVSA VL: not shown | binding result [3]: binds
9 |  |  |  | 10B11 mouse:human chimeric antibody (antibody, human IgG1, V domains shown, also called chimeric 10B11) VH: DVKLVESGGGLVKPGGSLKVSCAASGFTFSSYTMSWVRQTPEKRLEWVAVISSGGNSTYYPDSVKGRFTISRDNAKNTLYLQMSSLKSEDTAMYYCTREHYGSSHFAYWGQGTLVTVSA VL: not shown | binding result [4]: binds
10 |  |  |  | 6E9 (mouse monoclonal antibody) (antibody, V domains shown, Mouse hybridoma antibody) VH: EVMLVESGGGLVKPGGSLKLSCAASGFTFSSYDMSWVRQTPEKRLEWVATISGGGSYTYYQDSVKGRFTISRDNAKNTLYLQMSSLRSEDTAMYYCASPYYAMDYWGQGTSVTVSS VL: DIVMTQSHKFMSTSVGDRVSITCKASQDVGTAVAWYQQKPGQSPKLLIYWASTRHTGVPDRFTGSGSGTDFTLTISNVQSEDLADYFCQHYSSYPWTFGGGTKLEIKR | binding result [3]: binds
11 |  |  |  | 6E9 mouse:human chimeric antibody (antibody, human IgG1, V domains shown, also called chimeric 6E9) VH: EVMLVESGGGLVKPGGSLKLSCAASGFTFSSYDMSWVRQTPEKRLEWVATISGGGSYTYYQDSVKGRFTISRDNAKNTLYLQMSSLRSEDTAMYYCASPYYAMDYWGQGTSVTVSS VL: DIVMTQSHKFMSTSVGDRVSITCKASQDVGTAVAWYQQKPGQSPKLLIYWASTRHTGVPDRFTGSGSGTDFTLTISNVQSEDLADYFCQHYSSYPWTFGGGTKLEIKR | binding result [4]: binds
12 | 2 nM | 0.00064 s⁻¹ | 300000 M⁻¹ s⁻¹ | APE2058 (antibody, human IgG1, V domains shown, expressed from HEK 293 cells as human IgG1; also called anti-PD-1) VH: EVQLLESGGGLVQPGGSLRLSCAASGFTFSSYDMSWVRQAPGKGLEWVSTISGGGSYTYYQDSVKGRFTISRDNSKNTLYLQMNSLRAEDTAVYYCASPYYAMDYWGQGTTVTVSS VL: DIQLTQSPSFLSAYVGDRVTITCKASQDVGTAVAWYQQKPGKAPKLLIYWASTLHTGVPSRFSGSGSGTEFTLTISSLQPEDFATYYCQHYSSYPWTFGQGTKLEIK | Kd [1]: 0.2 nM; EC50, multiple human CD4+ T-cell MLR assays [5]: 0.02 µg/mL
